Experimental data: patent US8242083B2, “Kinase substrates” (PerkinElmer Health Sciences, Inc., priority 2008, dated 2012)

Legend:
Format in all cases: biochemical
BLK = BLK (Homo sapiens, UniProt P51451); assay: TR-FRET kinase assay, BLK; conditions: Kinase Concentration 0.5 nM; 50 nM ULight-labeled substrate, 200 micromolar ATP, 2 hours
Experimental: (§1) TR-FRET kinase assays are performed under standardized conditions: various individual kinases are incubated with 50 nM of kinase substrate BRB1 labeled with the TR-FRET acceptor dye ULight (PerkinElmer) and 200 micromolar ATP in 10 μL of kinase assay buffer (50 mM HEPES pH7.5, 10 mM MgCl2, 3 mM MnCl2, 1 mM EGTA, 2 mM DTT and 0.01% Tween-20) for 2 hours at room temperature. Reactions are stopped with EDTA, and anti-phospho-tyrosine antibodies (clone PT66) labeled with the TR-FRET europium chelate donor dye are added to a final concentration of 2 nM in a final volume of 20 μL. The TR-FRET signal emitted at 665 nm is read one hour after the addition of antibodies using a TR-FRET plate reader such as the Envision® Multilabel Plate reader (PerkinElmer). The emitted signal at 665 nm is proportional to the extent of peptide phosphorylation, Control reactions indicative of background are performed excluding ATP from the reaction.
(§2) Assay conditions are identical to those used described for FIG. 1.

BRK = BRK (Homo sapiens, UniProt Q13882); assay: TR-FRET kinase assay, BRK; conditions: Kinase Concentration 3 nM; 50 nM ULight-labeled substrate, 200 micromolar ATP, 2 hours
Chain of BRK (Q13882 whole entry, species assumed): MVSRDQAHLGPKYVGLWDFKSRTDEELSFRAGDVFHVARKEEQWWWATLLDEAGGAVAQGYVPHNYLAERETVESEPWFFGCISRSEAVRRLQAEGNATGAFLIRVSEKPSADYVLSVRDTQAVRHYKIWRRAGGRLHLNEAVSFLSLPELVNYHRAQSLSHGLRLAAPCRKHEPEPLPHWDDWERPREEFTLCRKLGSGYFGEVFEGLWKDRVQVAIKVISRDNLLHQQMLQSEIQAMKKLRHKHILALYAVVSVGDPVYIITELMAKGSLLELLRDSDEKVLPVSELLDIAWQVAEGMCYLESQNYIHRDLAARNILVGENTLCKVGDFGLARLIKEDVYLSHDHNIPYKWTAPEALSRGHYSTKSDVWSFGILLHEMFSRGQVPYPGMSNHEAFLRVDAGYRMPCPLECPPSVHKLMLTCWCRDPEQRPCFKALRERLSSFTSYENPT
Experimental: as §1, §2

TXK = biological target: T1, TXK (Homo sapiens, UniProt P42681); assay: TR-FRET kinase assay, TXK; conditions: Kinase Concentration 3 nM; 50 nM ULight-labeled substrate, 200 micromolar ATP, 2 hours
T1 sequence (P42681 1-527): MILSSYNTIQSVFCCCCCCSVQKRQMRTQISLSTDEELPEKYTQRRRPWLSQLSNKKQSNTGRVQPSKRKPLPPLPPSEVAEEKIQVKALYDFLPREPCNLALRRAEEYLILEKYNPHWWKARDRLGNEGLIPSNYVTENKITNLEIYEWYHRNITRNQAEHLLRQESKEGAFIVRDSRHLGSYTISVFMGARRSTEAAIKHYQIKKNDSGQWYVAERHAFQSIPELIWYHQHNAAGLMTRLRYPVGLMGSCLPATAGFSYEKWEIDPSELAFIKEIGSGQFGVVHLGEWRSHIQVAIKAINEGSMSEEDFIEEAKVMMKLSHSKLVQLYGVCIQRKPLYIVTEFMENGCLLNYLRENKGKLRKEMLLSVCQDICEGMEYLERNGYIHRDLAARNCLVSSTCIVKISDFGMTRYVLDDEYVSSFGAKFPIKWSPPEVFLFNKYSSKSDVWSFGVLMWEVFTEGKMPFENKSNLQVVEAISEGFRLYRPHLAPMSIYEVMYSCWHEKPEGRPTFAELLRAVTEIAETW
Experimental: as §1, §2

FLT1 = FLT1 (Homo sapiens, UniProt P17948); assay: TR-FRET kinase assay, FLT1; conditions: Kinase Concentration 0.25 nM; 50 nM ULight-labeled substrate, 200 micromolar ATP, 2 hours
Chain of FLT1 (P17948 27-1338, species assumed): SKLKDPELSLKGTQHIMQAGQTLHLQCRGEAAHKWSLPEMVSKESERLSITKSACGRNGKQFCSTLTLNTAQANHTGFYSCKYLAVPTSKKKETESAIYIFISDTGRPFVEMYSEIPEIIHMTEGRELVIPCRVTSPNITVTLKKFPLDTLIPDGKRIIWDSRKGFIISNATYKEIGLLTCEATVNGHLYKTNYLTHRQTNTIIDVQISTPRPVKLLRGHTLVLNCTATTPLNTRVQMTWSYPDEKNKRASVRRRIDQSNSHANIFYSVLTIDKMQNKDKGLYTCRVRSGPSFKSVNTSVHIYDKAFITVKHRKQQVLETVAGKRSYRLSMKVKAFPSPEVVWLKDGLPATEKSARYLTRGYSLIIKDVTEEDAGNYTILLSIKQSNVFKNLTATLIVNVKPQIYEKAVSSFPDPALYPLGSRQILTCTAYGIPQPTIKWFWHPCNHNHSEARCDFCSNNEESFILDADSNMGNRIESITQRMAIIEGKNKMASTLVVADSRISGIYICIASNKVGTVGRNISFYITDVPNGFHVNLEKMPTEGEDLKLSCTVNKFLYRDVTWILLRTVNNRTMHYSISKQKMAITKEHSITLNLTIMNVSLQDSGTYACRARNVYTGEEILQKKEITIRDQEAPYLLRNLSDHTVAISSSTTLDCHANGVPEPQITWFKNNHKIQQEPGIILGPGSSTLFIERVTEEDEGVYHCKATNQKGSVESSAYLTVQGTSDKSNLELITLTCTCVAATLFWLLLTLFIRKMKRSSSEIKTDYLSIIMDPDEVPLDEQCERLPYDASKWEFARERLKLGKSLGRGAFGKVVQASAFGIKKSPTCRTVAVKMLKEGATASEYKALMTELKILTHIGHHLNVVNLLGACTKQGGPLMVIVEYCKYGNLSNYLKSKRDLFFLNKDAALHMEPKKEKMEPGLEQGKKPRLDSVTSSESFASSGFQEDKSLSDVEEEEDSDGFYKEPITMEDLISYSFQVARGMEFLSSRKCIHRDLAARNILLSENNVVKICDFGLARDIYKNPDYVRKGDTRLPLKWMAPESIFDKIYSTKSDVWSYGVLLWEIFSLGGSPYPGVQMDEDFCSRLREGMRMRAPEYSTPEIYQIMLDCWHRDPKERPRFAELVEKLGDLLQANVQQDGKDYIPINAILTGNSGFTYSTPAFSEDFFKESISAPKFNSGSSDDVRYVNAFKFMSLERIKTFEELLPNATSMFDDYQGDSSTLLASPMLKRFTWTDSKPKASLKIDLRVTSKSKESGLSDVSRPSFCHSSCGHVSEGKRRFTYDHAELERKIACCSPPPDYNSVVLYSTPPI
Experimental: as §1, §2

FMS (CSFR) = FMS (CSFR) (Homo sapiens, UniProt P07333); assay: TR-FRET kinase assay, FMS (CSFR); conditions: Kinase Concentration 0.25 nM; 50 nM ULight-labeled substrate, 200 micromolar ATP, 2 hours
Experimental: as §1, §2

MER = biological target: T2, MER (Homo sapiens, UniProt Q12866); assay: TR-FRET kinase assay, MER; conditions: Kinase Concentration 0.25 nM; 50 nM ULight-labeled substrate, 200 micromolar ATP, 2 hours
T2 sequence (Q12866 21-999): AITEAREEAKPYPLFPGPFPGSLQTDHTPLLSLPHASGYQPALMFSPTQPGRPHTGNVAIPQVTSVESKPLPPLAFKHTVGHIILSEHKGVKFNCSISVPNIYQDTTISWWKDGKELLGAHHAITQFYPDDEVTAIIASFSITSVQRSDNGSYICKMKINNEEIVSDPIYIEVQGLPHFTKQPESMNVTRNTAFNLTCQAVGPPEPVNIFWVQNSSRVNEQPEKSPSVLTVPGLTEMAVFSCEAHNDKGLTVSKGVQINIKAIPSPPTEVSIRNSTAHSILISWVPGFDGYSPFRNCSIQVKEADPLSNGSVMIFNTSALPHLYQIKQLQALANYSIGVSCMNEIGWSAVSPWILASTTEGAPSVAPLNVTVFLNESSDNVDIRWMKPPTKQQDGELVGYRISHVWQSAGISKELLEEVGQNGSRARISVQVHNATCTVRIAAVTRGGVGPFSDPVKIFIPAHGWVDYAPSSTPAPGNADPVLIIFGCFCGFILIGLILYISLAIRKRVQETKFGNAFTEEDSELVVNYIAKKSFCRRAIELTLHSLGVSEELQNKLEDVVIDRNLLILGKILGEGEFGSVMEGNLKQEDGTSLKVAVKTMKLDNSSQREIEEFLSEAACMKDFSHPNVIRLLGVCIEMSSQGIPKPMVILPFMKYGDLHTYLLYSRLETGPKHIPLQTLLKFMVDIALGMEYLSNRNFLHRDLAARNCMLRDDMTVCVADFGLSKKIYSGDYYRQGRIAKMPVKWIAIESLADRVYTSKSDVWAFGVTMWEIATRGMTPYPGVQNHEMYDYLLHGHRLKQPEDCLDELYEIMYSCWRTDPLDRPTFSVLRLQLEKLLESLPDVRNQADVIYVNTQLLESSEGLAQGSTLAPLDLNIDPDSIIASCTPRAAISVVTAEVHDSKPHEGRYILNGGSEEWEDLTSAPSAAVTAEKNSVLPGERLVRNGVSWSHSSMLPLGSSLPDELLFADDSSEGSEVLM
Experimental: as §1, §2

Chain of BLK (P51451 whole entry, species assumed): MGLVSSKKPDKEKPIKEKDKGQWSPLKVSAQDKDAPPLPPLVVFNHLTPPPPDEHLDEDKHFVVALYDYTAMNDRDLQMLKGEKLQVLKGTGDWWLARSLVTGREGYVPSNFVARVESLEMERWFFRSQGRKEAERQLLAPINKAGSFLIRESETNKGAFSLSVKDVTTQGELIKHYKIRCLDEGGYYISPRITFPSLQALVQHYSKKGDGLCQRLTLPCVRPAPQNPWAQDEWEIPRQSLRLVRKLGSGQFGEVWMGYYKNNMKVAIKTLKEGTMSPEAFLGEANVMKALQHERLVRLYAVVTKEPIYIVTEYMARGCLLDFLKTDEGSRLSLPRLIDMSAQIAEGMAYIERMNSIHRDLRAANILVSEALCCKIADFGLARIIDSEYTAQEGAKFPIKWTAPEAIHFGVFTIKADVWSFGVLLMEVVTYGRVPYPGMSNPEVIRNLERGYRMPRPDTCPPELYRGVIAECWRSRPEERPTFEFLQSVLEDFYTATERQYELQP

**Q.** With “C AYE AYE AYE K EYA EYA EYA K AYA EYE R (CAYEAYEAYEKEYAEYAEYAKAYAEYER; tyrosine kinase substrate peptide) [BRB1]” as the sequence, how does the “Signal to Noise ratio with BRB1 Peptide” value (BLK) read?
**A.** The value was 31.0.

**Q.** What about the “Signal to Noise ratio with BRB1 Peptide” value (BRK) of the same sequence?
**A.** Its value is 2.4.

**Q.** What about the “Signal to Noise ratio with BRB1 Peptide” value (TXK) of the same sequence?
**A.** The value was 5.9.

**Q.** What about the “Signal to Noise ratio with BRB1 Peptide” value (FLT1) of the same sequence?
**A.** Its value is 4.1.

**Q.** What about the “Signal to Noise ratio with BRB1 Peptide” value (FMS (CSFR)) of the same sequence?
**A.** Its value is 3.0.

**Q.** What about the “Signal to Noise ratio with BRB1 Peptide” value (MER) of the same sequence?
**A.** Its value is 12.9.
